Measurements taken from IntAct's records for PubMed 21224850.

B1: Cell division protein SepF (Bacillus subtilis), O31728 (parent)
chain: MSMKNKLKNFFSMEDEEYEYEYIETERESHEEHEQKEKPAYNGNKPAGKQNVVSLQSVQKSSKVVLSEPRVYAEAQEIADHLKNRRAVVVNLQRIQHDQAKRIVDFLSGTVYAIGGDIQRIGSDIFLCTPDNVDVSGTISELISEDEHQRW
partner: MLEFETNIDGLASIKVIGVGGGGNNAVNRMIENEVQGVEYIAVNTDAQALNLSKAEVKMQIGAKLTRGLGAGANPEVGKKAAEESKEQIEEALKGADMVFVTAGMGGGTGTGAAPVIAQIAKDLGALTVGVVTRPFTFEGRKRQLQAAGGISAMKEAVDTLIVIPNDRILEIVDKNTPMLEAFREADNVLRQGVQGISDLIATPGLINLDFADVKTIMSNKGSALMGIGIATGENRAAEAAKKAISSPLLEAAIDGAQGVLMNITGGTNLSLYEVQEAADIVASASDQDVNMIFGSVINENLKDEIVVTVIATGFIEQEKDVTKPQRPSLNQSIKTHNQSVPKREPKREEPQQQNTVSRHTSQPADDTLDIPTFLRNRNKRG

Variants of: B1
Conditions: with ftsz_bacsu ftsZ

effect of a mutation on the interaction | Variant
disrupting interaction | MSMKNKLKNFFSMEDEEYEYEYIETERESHEEHEQKEKPAYNGNKPAGKQNVVSLQSVQKSSKVVLSEPRVYAEAQEIADHLKNRRAVVVNLQRIQHDQAKRIVDFLSGTVYAIGGDIQRIGSDISLCTPDNVDVSGTISELISEDEHQRW [F126S]

Variants of: B1
Conditions: with ftsz_bacsu ftsZ
Remark: another data set of the same source

effect of a mutation on the interaction | Variant
disrupting interaction | MSMKNKLKNFFSMEDEEYEYEYIETERESHEEHEQKEKPAYNGNKPAGKQNVVSLQSVQKSSKVVLSEPRVYAEAQEIADHLKNRRAVVVNLQRIQHDQVKRIVDFLSGTVYAIGGDIQRIGSDIFLCTPDNVDVSGTISELISEDEHQRW [A100V]
